Data set [1] addresses T1, Fis-K90A (UniProt P0A6R3 1-98, K90A). Kind of data set: EMSA; 50 ug/ml poly dI/dC; essentially abolished; EMSA with 50 ug/ml poly dI/dC as in ref 19; buffer, salt, pH and temperature not stated in the material. Conditions: protein: recombinant; chain copies: 2; label: 32P; 27 bp duplex. For orientation: In EMSA bound probe runs differently from free probe, usually more slowly.

Data set [2] addresses T2, Fis (wild type) (UniProt P0A6R3 1-98). Description: X-ray crystallography; 2.7 A; EMSA with 50 ug/ml poly dI/dC as in ref 19; buffer, salt, pH and temperature not stated in the material. As to conditions: protein: recombinant; chain copies: 2; label: 32P; 27 bp duplex.
In data set [3] the target is T2, Fis (wild type). Kind of data set: EMSA; 50 ug/ml poly dI/dC; EMSA with 50 ug/ml poly dI/dC as in ref 19; buffer, salt, pH and temperature not stated in the material. As to conditions: protein: recombinant; chain copies: 2; duplex.
The target of data set [4] is T1, Fis-K90A. The description is as above. As to conditions: protein: recombinant; chain copies: 2; duplex.
Data set [5] deals with T1, Fis-K90A. Kind of data set: EMSA; 50 ug/ml poly dI/dC; binding largely restored; EMSA with 50 ug/ml poly dI/dC as in ref 19; buffer, salt, pH and temperature not stated in the material. As to conditions: protein: recombinant; chain copies: 2; label: 32P; 27 bp duplex.
In data set [6] the target is T2, Fis (wild type). Kind of data set: EMSA; 50 ug/ml poly dI/dC; 60-fold better than F28; half-life 14 min; EMSA with 50 ug/ml poly dI/dC as in ref 19; buffer, salt, pH and temperature not stated in the material. Conditions: protein: recombinant; chain copies: 2; label: 32P; 27 bp duplex.
Data set [7] addresses T2, Fis (wild type). Kind of data set: EMSA; 50 ug/ml poly dI/dC; 230-fold better than F29; half-life 5 min; EMSA with 50 ug/ml poly dI/dC as in ref 19; buffer, salt, pH and temperature not stated in the material. Conditions: protein: recombinant; chain copies: 2; label: 32P; duplex.
Data set [8] deals with the molecule itself. Description: crystal structure; Fis co-crystallized with DNA duplexes F28, F28-dI, F28-2AP and F29-dI; data collected at 100 K; molecular replacement with Fis-F1 (PDB 3IV5).
The target of data set [9] is T2, Fis (wild type). Description: EMSA; 50 ug/ml poly dI/dC; high-affinity reference, Kd in figure only; EMSA with 50 ug/ml poly dI/dC as in ref 19; buffer, salt, pH and temperature not stated in the material. Conditions: protein: recombinant; chain copies: 2; label: 32P; 27 bp duplex.
In data set [10] the target is T1, Fis-K90A. Kind of data set: EMSA; 50 ug/ml poly dI/dC; EMSA with 50 ug/ml poly dI/dC as in ref 19; buffer, salt, pH and temperature not stated in the material. As to conditions: protein: recombinant; chain copies: 2; label: 32P; 27 bp duplex.
Data set [11] deals with T2, Fis (wild type). Description: X-ray crystallography; 2.8 A; EMSA with 50 ug/ml poly dI/dC as in ref 19; buffer, salt, pH and temperature not stated in the material. As to conditions: protein: recombinant; chain copies: 2; label: 32P; duplex.

B1: F28 (dsDNA)
DNA 1: AAATTTGTTTGAGCGTTGAGCAAATTT
DNA 2: AAATTTGCTCAACGCTCAAACAAATTT
Regarding B1, the values for the binding result with Fis-K90A [1] and in the data set with Fis (wild type) [2] were “no binding” and “binds”, respectively.

B2: F27 (dsDNA)
DNA 1: AAATTTGTTTGAACTTTGAGCAAATTT
DNA 2: AAATTTGCTCAAAGTTCAAACAAATTT
With B2, the binding signal was ~1 fold of F1 (indistinguishable) with Fis (wild type) [3] and 10 fold worse than Fis-wt in the data set with Fis-K90A [4].

B3: F28-dI (dsDNA)
DNA 1: AAATTTGTTTGAGCGTTGAGCAAATTT
DNA 2: AAATTTGCTCAACGCTCAAACAAATTT
modifications: inosine replaces the guanines of the three central G/C pairs (ICI), on both strands
With B3, the binding result with Fis-K90A [5] is on record as “binds”. In addition, the Kd in the data set with Fis (wild type) [6] was less than 1 nM.

B4: F29-dI (dsDNA)
DNA 1: AAATTTGTTTGGGCGCTGAGCAAATTT
DNA 2: AAATTTGCTCAGCGCCCAAACAAATTT
modifications: inosine replaces the guanines of the five central G/C pairs (IICIC), on both strands
As for B4, the binding signal in the data set with Fis (wild type) [7] was roughly 8 fold worse than F1.

B5: Fis protein (natural protein)
chain: MFEQRVNSDVLTVSTVNSQDQVTQKPLRDSVKQALKNYFAQLNGQDVNDLYELVLAEVEQPLLDMVMQYTRGNQTRAALMMGINRGTLRKKLKKYGMN
notes: also called Fis-wt; wild-type Fis
With B5, the binding result in data set [8] is on record as “binds”.

B6: F1 (dsDNA)
DNA 1: AAATTTGTTTGAATTTTGAGCAAATTT
DNA 2: AAATTTGCTCAAAATTCAAACAAATTT
As to B6, in the data set with Fis (wild type) [9], the binding result is “binds”. Moreover, the binding signal with Fis-K90A [10] was ~1 fold of Fis-wt (indistinguishable).

B7: F30 (dsDNA)
DNA 1: AAAGCGGTTTGAATTTTGAGCCGCTTT
DNA 2: AAAGCGGCTCAAAATTCAAACCGCTTT
Take B7: the binding signal with Fis-K90A [4] was determined as 9 fold worse than Fis-wt.

B8: F28-2AP (dsDNA)
DNA 1: AAATTTGTTTGAATATTGAGCAAATTT
DNA 2: AAATTTGCTCAATATTCAAACAAATTT
modifications: 2-aminopurine in three central 2AP/T pairs (2T2), on both strands
In the case of B8, the binding result with Fis (wild type) [11] was “binds”.

What is called Kd is a measure of binding affinity in units of concentration.
